The values that follow come from patent US20190202907A1 (180 THERAPEUTICS, published 2019).

Residue numbers refer to the chain shown, from its start.

The labels stand for the following.
T1: human ST2L (human, UniProt Q01638 19-328, limits assumed)
T1 construct: also called IL-1R4; IL-33Ra
T1 sequence (looked up): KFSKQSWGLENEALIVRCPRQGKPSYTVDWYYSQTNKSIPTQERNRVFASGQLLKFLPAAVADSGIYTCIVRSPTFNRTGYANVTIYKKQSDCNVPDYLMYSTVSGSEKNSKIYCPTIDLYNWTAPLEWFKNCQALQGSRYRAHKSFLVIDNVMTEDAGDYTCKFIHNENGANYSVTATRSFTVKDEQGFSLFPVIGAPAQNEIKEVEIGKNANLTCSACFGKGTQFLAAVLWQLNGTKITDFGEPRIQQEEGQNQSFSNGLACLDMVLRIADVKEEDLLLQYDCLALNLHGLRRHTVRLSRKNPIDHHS

B1: STLM103 (antibody, from another filing, V domains shown)
VH: EVQLLESGGGLVQPGGSLRLSCAASGFTFSFYDMFWVRQAPGKGLEWVSSIRGEGGRTDYADSVKGRFTISRDNSKNTLYLQMNSLRAEDTAVYYCARDPWSTEGSFFVLDYWGQGTLVTVSS
VL: EIVLTQSPATLSLSPGERATLSCRASQSVDDDLAWYQQKPGQAPRLLIYDASNRATGIPARFSGSGSGTDFTLTISSLEPEDFAVYYCQQYIGAPITFGQGTKVEIK
B2: STLM209 (antibody, from another filing, V domains shown)
VH: B1 VH with F31I, F35I, S50T, R57G, D59S
VL: B1 VL with G93T, I96L
B3: STLM207 (antibody, from another filing, V domains shown)
VH: B1 VH with F31S, F35I, S50T, R57T, D59A
VL: B1 VL with G93T, I96L
B4: STLM217 (antibody, from another filing, V domains shown)
VH: B1 VH with F31V, S50D, R52K, R57E, D59S
VL: B1 VL
B5: STLM221 (antibody, from another filing, V domains shown)
VH: B1 VH with F31I, S50Y, R57D, D59N
VL: B1 VL
B6: STLM218 (antibody, from another filing, V domains shown)
VH: B1 VH with F31V, Y32D, D33S, R52E, E54N, R57A, D59Y
VL: B1 VL
B7: STLM220 (antibody, from another filing, V domains shown)
VH: B1 VH with S50D, R57G, D59A
VL: B1 VL
B8: STLM208 (antibody, V domains shown)
VH: B1 VH with F31I, F35I, R57G, D59Y
VL: B1 VL with G93T, I96L
B9: STLM219 (antibody, from another filing, V domains shown)
VH: B1 VH with F31G, S50D, R52G, R57S, D59N
VL: B1 VL
B10: STLM107 (antibody, from another filing, V domains shown)
VH: B1 VH with F31D, D33A, S50A, R52E, R57E, D59N
VL: B1 VL
B11: STLM222 (antibody, from another filing, V domains shown)
VH: B1 VH with F31I, D33S, S50D, R52G, R57G, D59S
VL: B1 VL
B12: STLM123 (antibody, from another filing, V domains shown)
VH: B1 VH with F31D, D33A, S50A, R52E, R57E, D59N
VL: B1 VL with G93T, I96L
B13: STLM206 (antibody, from another filing, V domains shown)
VH: B1 VH with F31I, F35I, S50T, R57S, D59Y
VL: B1 VL with G93T, I96L
B14: STLM124 (antibody, from another filing, V domains shown)
VH: B1 VH with F31I, F35I, S50T, R52K, R57G, D59Y
VL: B1 VL with G93T, I96L
B15: STLM108 (antibody, from another filing, V domains shown)
VH: B1 VH with F31I, F35I, S50T, R52K, R57G, D59Y
VL: B1 VL
B16: STLM226 (antibody, from another filing, V domains shown)
VH: EVQLVQSGAEVKKPGATVKISCKVSAFNIKDDYMHWVQQAPGKGLEWMGRIDPAIGNTEYAEKFQGRVTITADTSTDTAYMELSSLRSEDTAVYYCATGDFYAMAYWGQGTLVTVSS
VL: DIQMTQSPSSLSASVGDRVTITCITNTDIDDVIHWYQQKPGKAPKLLIYEGNTLRPGVPSRFSGSGSGTDFTLTISSLQPEDFATYYCLQSDNLLTFGQGTKLEIK
B17: STLM227 (antibody, from another filing, V domains shown)
VH: B16 VH
VL: B16 VL with M4L, S10F, D70E, L94M
B18: STLM232 (antibody, from another filing, V domains shown)
VH: B16 VH
VL: B16 VL with L73F, F83I, L94M
B19: STLM231 (antibody, from another filing, V domains shown)
VH: B16 VH
VL: B16 VL with A43V, F83V, L94M
B20: STLM230 (antibody, from another filing, V domains shown)
VH: B16 VH
VL: B16 VL with L94M
B21: STLM228 (antibody, from another filing, V domains shown)
VH: B16 VH
VL: B16 VL with S10T, D70E, E81D, L94M
B22: STLM229 (antibody, from another filing, V domains shown)
VH: B16 VH
VL: B16 VL with L11V, L94M

The target of one test is cyno ST2L (cyno). Description: affinity table; method not stated.
The term Kd denotes the equilibrium constant for the complex coming apart. As a reminder, the koff is a measure of how fast the partners let go of each other. As usually defined, the kon is the rate constant with which the complex forms. A high value points to fast association. Regarding B1, the Kd is 0.031 nM, the koff was 0.000202 s⁻¹ and the kon was 6.42e+06 M⁻¹ s⁻¹.
The like results for B2 were, in that order, 0.009 nM, 0.000311 s⁻¹ and 3.39e+07 M⁻¹ s⁻¹.
As to B3, the equilibrium dissociation constant (Kd) was found to be 0.021 nM, the koff was determined as 0.00207 s⁻¹ and the on-rate constant (kon) stood at 1e+08 M⁻¹ s⁻¹.
Turning to B4, the Kd came out at 0.004 nM, the koff came to 0.000138 s⁻¹ and the kon worked out at 3.81e+07 M⁻¹ s⁻¹.
The matching figures for B5: 0.022 nM, 0.00013 s⁻¹ and 6.04e+06 M⁻¹ s⁻¹.
On to B6, for which the Kd worked out at 0.018 nM, the koff amounted to 0.000265 s⁻¹ and the on-rate (kon) worked out at 1.45e+07 M⁻¹ s⁻¹.
As for B7, the Kd turned out to be 0.009 nM, the off-rate constant (koff) worked out at 0.00014 s⁻¹ and the kon amounted to 1.6e+07 M⁻¹ s⁻¹.
B8 yielded a Kd of 0.005 nM, a koff of 7.02e-05 s⁻¹ and a kon of 1.39e+07 M⁻¹ s⁻¹.
The matching figures for B9: 0.022 nM, 0.00023 s⁻¹ and 1.07e+07 M⁻¹ s⁻¹.
The matching figures for B10: 0.007 nM, 0.00055 s⁻¹ and 1e+08 M⁻¹ s⁻¹.
The matching figures for B11: 0.029 nM, 0.000345 s⁻¹ and 1.18e+07 M⁻¹ s⁻¹.
For the molecule B12, the Kd was 0.005 nM, the dissociation rate constant (koff) worked out at 0.000519 s⁻¹ and the kon is 1e+08 M⁻¹ s⁻¹.
The matching figures for B13: 0.006 nM, 0.000583 s⁻¹ and 9.4e+07 M⁻¹ s⁻¹.
B14 had an equilibrium dissociation constant (Kd) of 0.03 nM, a koff of 0.00257 s⁻¹ and a kon of 8.71e+07 M⁻¹ s⁻¹.
The matching figures for B15: 0.029 nM, 0.000598 s⁻¹ and 2.05e+07 M⁻¹ s⁻¹.
B16 displayed a Kd of 0.301 nM, a koff of 0.0301 s⁻¹ and an on-rate constant (kon) of 1e+08 M⁻¹ s⁻¹.
The molecule B17 had a dissociation constant Kd of 0.294 nM, an off-rate (koff) of 0.0294 s⁻¹ and a kon of 1e+08 M⁻¹ s⁻¹.
The molecule B18 had a Kd of 0.08 nM, an off-rate (koff) of 0.00797 s⁻¹ and a kon of 1e+08 M⁻¹ s⁻¹.
Molecule B19 showed a Kd of 0.172 nM, a koff of 0.0143 s⁻¹ and a kon of 8.27e+07 M⁻¹ s⁻¹.
As to B20, the dissociation constant (Kd) is 0.144 nM, the off-rate constant (koff) is 0.0073 s⁻¹ and the kon was 5.06e+07 M⁻¹ s⁻¹.
Molecule B21 came in with a Kd of 0.155 nM, an off-rate constant (koff) of 0.0155 s⁻¹ and a kon of 1e+08 M⁻¹ s⁻¹.
B22 yielded a dissociation constant (Kd) of 0.085 nM, a koff of 0.0085 s⁻¹ and a kon of 1e+08 M⁻¹ s⁻¹.

Another test concerns the target T1, human ST2L. As to the kind of experiment: affinity table; method not stated.
B1 came in with a Kd of 0.041 nM, a koff of 0.000163 s⁻¹ and a kon of 3.97e+06 M⁻¹ s⁻¹.
B2: the Kd is 0.026 nM, the koff is 0.00017 s⁻¹ and the kon came to 6.59e+06 M⁻¹ s⁻¹.
On to B3, for which the dissociation constant Kd was 0.048 nM, the off-rate (koff) is 0.000395 s⁻¹ and the association rate constant (kon) was found to be 8.33e+06 M⁻¹ s⁻¹.
The like results for B4 were, in that order, 0.017 nM, 0.000126 s⁻¹ and 7.27e+06 M⁻¹ s⁻¹.
As to B5, the Kd was determined as 0.035 nM, the koff was determined as 9.61e-05 s⁻¹ and the kon came to 2.73e+06 M⁻¹ s⁻¹.
B6 showed a dissociation constant Kd of 0.023 nM, an off-rate (koff) of 0.000224 s⁻¹ and an association rate constant (kon) of 9.89e+06 M⁻¹ s⁻¹.
The matching figures for B7: 0.016 nM, 9.53e-05 s⁻¹ and 5.8e+06 M⁻¹ s⁻¹.
The like results for B8 were, in that order, 0.011 nM, 6.76e-05 s⁻¹ and 5.97e+06 M⁻¹ s⁻¹.
For the molecule B9, the Kd was 0.027 nM, the koff was determined as 0.000201 s⁻¹ and the on-rate constant (kon) was found to be 7.54e+06 M⁻¹ s⁻¹.
The like results for B10 were, in that order, 0.012 nM, 0.000341 s⁻¹ and 2.9e+07 M⁻¹ s⁻¹.
Consider B11, for which the Kd turned out to be 0.037 nM, the koff was found to be 0.000301 s⁻¹ and the kon is 8.22e+06 M⁻¹ s⁻¹.
On to B12, for which the Kd is 0.015 nM, the koff is 0.000208 s⁻¹ and the association rate constant (kon) is 1.37e+07 M⁻¹ s⁻¹.
The molecule B13 yielded a Kd of 0.025 nM, a koff of 0.00016 s⁻¹ and an on-rate constant (kon) of 6.39e+06 M⁻¹ s⁻¹.
For the molecule B14, the Kd was found to be 0.046 nM, the dissociation rate constant (koff) was determined as 0.000756 s⁻¹ and the kon worked out at 1.65e+07 M⁻¹ s⁻¹.
The matching figures for B15: 0.097 nM, 0.000222 s⁻¹ and 2.29e+06 M⁻¹ s⁻¹.
In turn, B16 displayed a Kd of 0.09 nM, a koff of 0.00193 s⁻¹ and a kon of 2.16e+07 M⁻¹ s⁻¹.
As for B17, the equilibrium dissociation constant (Kd) was 0.064 nM, the off-rate (koff) is 0.0017 s⁻¹ and the kon was 2.66e+07 M⁻¹ s⁻¹.
As to B18, the dissociation constant (Kd) stood at 0.025 nM, the off-rate (koff) worked out at 0.000449 s⁻¹ and the kon stood at 1.78e+07 M⁻¹ s⁻¹.
Consider B19, for which the Kd amounted to 0.046 nM, the koff was 0.000913 s⁻¹ and the kon turned out to be 1.97e+07 M⁻¹ s⁻¹.
In the case of B20, the Kd came out at 0.038 nM, the koff turned out to be 0.000426 s⁻¹ and the kon amounted to 1.11e+07 M⁻¹ s⁻¹.
In the case of B21, the Kd was determined as 0.052 nM, the off-rate (koff) was 0.00104 s⁻¹ and the kon turned out to be 2.01e+07 M⁻¹ s⁻¹.
With B22, the equilibrium dissociation constant (Kd) was found to be 0.035 nM, the koff is 0.000445 s⁻¹ and the kon amounted to 1.29e+07 M⁻¹ s⁻¹.
